According to publication PMC7939140:

Target: BG505SOSIP.664 gp140 NFL (native flexible linker version of wild type) (HIV-1 (BG505 isolate, clade A))
Test: native gel or EMSA

## BG505SOSIP.664 gp140 NFL (native flexible linker version of wild type) (natural protein)
  stoichiometry N: 3
